{
  "source": "patent US9789203B2",
  "about": "“cKIT antibody drug conjugates” (Novartis AG, priority 2013, dated 2017)",
  "molecules": {"B1": {"name": "9P3: hybridoma derived anti-cKIT antibody, VH SEQ ID NO.9, VL SEQ ID NO.18 (antibody, V domains shown)", "VH": "EVRLVESEGGLVQPRSSMKLSCTASGFTFSDYYMAWVRQVPEKGLEWVANINYDGSSTYYLDSLKSRFIISRDNAKNILYLQMSSLKSEDTATYYCARGDYYGTTYWYFDVWGTGTTVTVSS", "VL": "DIQMTQTTSSLSASLGDRVTISCRASQDISNYLNWYQQKPDGTVKLLIYYTSRLQSGVPSRFSGSGSGTDYSLTISNLEQEDIATYFCQQGKKLWSFGGGTKLEIKR"}, "B2": {"name": "NEG026: anti-cKIT antibody of Table 1, VH SEQ ID NO 46, VL SEQ ID NO 55 (antibody, V domains shown)", "VH": "EVQLVESGGGLVQPGGSLRLSCAASGFTFSDYYMAWVRQAPGKGLEWVANINQNTGSTYYVDSVQGRFTISRDNAKNSLYLQMNSLRAEDTAVYYCARGDYYGTTYWYFDVWGQGTTVTVSS", "VL": "EIVMTQSPATLSLSPGERATLSCRASQDISNYLNWYQQKPGQAPRLLIYYTSRLQSGIPARFSGSGSGTDYTLTISSLEPEDFAVYYCQQGKKLWSFGGGTKVEIK"}, "B3": {"name": "NEG027: anti-cKIT antibody of Table 1, VH SEQ ID NO 64, VL SEQ ID NO 73 (antibody, V domains shown)", "VH": "B2 VH with N50S, V61L, Q65R", "VL": "B2 VL"}, "B4": {"name": "NEG086: anti-cKIT antibody of Table 1, VH SEQ ID NO 100, VL SEQ ID NO 109 (antibody, V domains shown)", "VH": "B2 VH with N54I, T55A", "VL": "DIQMTQSPSSLSASVGDRVTITCRASQSISSYLNWYQQKPGKAPKLLIYYTSRLQSGVPSRFSGSGSGTDFTLTISSLQPEDFATYYCQQGRRLWSFGGGTKVEIK"}, "B5": {"name": "NEG087: anti-cKIT antibody of Table 1, VH SEQ ID NO 118, VL SEQ ID NO 127 (antibody, V domains shown)", "VH": "B2 VH with N50S, V61L, Q65R", "VL": "B4 VL"}},
  "key": {"GIST cell lines": {"tested_on": "GIST cell lines", "conditions": "Edris et al. 2013; cited from earlier work"}, "Uke-1 cells": {"tested_on": "Uke-1 cells", "test": "ADCC activity in vitro (Calcein release, NK3.3 effector cells)", "assay_type": "cell-based, human", "conditions": "Uke-1 target cells, NK3.3 effector cells 20 to 1, FIG. 17", "method": "In brief, Uke-1 cells were stained with Calcein acetoxy-methyl ester (Calcein-AM; Sigma-Aldrich catalog #17783-5MG, St. Louis, Mo.), washed twice, pipetted into a 96-well microtiterplate (96 well, U-bottomed, clear plastic; Corning Costar, catalog #650 160, Tewksbury, Mass.) at a concentration of 5000 cells per well and pre-incubated for 10 min with a serial dilution of the above mentioned antibodies and proteins (from 50,000 to 0.003 μg per ml) before adding the effector NK3.3 cells for 1 hour in an effector to target ratio of 20 to 1. In order to calculate the antibody specific lysis of the target cells, a parallel incubation of target cells only without antibody or effector cells served as a baseline and negative control, whereas the positive control or maximal lysis or hundred percent specific lysis was determined by lysis of target cells only with a 1% Triton-X 100 solution. […] Following a co-incubation of target and effector cells, the microtiterplate was centrifuged and an aliquot of the supernatant fluid was transferred to another microtiterplate (96 well, flat-bottomed, black with clear bottom; (Corning Costar, catalog #3904, Tewksbury, Mass.) and the concentration of free Calcein in solution was determined with a fluorescence counter (Victor 3® multilabel counter, Perkin Elmer, Waltham, Mass.)."}, "[1]": {"tested_on": "HAMLX5343 systemic primary AML xenograft", "conditions": "mouse, in vivo, ip", "protocol": "(§4) Female NSG mice were implanted systemically (via tail vein injection) with 5×10^6 cells in phosphate buffered saline.\n(§5) Leukemic burden was measured by flow cytometry. Weekly, blood was collected from all study animals via the tail. […] The stained cells were analyzed on a FACS Canto flow cytometer (BD Biosciences) (FIG. 52A). Body weights were measured twice weekly (FIG. 52B)."}, "[2]": {"tested_on": "HAMLX5343 systemic primary AML xenograft", "test": "In vivo efficacy, HAMLX5343 systemic primary AML xenograft", "protocol": "as §4, §5"}, "mouse cKIT ECD": {"biological_target": "T1, mouse cKIT ECD (Mus musculus, UniProt P05532)", "T1 construct": "3.125-50 nM of cKIT receptor extracellular domains (ECD) were diluted in a 2-fold series", "T1 sequence (P05532 25-527 limits assumed)": "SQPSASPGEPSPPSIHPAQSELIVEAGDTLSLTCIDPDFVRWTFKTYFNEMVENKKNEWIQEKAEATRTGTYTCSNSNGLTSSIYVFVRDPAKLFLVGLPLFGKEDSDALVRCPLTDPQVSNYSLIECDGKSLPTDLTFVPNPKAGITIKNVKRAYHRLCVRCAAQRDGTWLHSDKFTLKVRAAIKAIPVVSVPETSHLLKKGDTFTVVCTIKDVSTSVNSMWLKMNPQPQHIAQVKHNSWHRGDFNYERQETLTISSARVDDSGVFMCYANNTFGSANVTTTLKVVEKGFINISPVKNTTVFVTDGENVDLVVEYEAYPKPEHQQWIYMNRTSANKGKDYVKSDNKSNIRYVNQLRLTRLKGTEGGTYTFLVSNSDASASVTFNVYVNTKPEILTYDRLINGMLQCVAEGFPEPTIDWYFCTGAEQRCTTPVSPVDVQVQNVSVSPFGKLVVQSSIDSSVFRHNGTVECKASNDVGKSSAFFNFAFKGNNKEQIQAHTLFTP", "test": "SPR (Biacore 2000) affinity measurement", "assay_type": "binding", "conditions": "25° C., antibody captured, ECD in solution", "method": "(§1) Affinity of the antibodies to cKIT species orthologues and also to cKIT was determined using SPR technology using a Biacore® 2000 instrument (GE Healthcare, Pittsburgh, Pa.) and with CM5 sensor chips.\n(§2) Briefly, HBS-P (0.01 M HEPES, pH 7.4, 0.15 M NaCl, 0.005% Surfactant P20) supplemented with 2% Odyssey® blocking buffer (Li-Cor Biosciences, Lincoln, Nebr.) was used as the running buffer for all the experiments. The immobilization level and analyte interactions were measured by response unit (RU). Pilot experiments were performed to test and confirm the feasibility of the immobilization of the anti-human Fc antibody (Catalog number BR100839, GE Healthcare, Pittsburgh, Pa.) and the capture of the test antibodies.\n(§3) For kinetic measurements, the experiments were performed in which the antibodies were captured to the sensor chip surface via the immobilized anti-human Fc antibody and the ability of the cKIT proteins to bind in free solution was determined Briefly, 25 μg/ml of anti-human Fc antibody at pH 5 was immobilized on a CM5 sensor chip through amine coupling at flow rate of 5 μl/minute on all two flow cells to reach 10,500 RUs. 0.1-1 μg/ml of test antibodies were then injected at 10 μl/min for 1 minute. Captured levels of the antibodies were generally kept below 200 RUs. Subsequently, 3.125-50 nM of cKIT receptor extracellular domains (ECD) were diluted in a 2-fold series and injected at a flow rate of 40 μl/min for 3 min over both reference and test flow cells. Table of tested ECDs is listed below. Dissociation of the binding was followed for 10 min. After each injection cycle, the chip surface was regenerated with 3 M MgCl2 at 10 μl/min for 30 s."}, "rat cKIT ECD": {"biological_target": "rat cKIT ECD", "sequence (as listed by the source)": "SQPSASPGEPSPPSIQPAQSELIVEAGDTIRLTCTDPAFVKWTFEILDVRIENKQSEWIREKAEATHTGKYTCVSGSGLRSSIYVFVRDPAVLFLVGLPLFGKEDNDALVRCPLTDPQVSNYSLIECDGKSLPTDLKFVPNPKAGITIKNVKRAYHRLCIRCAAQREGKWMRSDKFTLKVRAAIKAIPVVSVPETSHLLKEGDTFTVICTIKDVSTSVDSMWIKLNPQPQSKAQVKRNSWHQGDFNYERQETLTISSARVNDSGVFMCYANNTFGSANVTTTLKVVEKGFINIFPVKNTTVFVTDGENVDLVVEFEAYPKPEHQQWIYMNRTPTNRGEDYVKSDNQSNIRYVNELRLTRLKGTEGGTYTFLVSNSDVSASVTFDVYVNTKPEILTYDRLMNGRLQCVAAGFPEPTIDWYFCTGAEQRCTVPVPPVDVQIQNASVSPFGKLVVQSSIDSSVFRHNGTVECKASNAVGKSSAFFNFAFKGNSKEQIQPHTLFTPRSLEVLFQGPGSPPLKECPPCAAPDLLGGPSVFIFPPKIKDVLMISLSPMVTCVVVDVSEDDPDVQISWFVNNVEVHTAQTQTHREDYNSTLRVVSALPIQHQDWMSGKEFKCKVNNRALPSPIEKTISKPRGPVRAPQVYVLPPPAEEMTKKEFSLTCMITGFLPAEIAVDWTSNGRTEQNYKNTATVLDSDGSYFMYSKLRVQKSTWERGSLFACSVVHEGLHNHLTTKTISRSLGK", "test": "SPR (Biacore 2000) affinity measurement", "assay_type": "binding", "conditions": "25° C., antibody captured, ECD in solution", "method": "as §1, §2, §3"}, "SCF binding to cKIT": {"biological_target": "SCF binding to cKIT (Homo sapiens, UniProt P10721)", "sequence (P10721 26-976)": "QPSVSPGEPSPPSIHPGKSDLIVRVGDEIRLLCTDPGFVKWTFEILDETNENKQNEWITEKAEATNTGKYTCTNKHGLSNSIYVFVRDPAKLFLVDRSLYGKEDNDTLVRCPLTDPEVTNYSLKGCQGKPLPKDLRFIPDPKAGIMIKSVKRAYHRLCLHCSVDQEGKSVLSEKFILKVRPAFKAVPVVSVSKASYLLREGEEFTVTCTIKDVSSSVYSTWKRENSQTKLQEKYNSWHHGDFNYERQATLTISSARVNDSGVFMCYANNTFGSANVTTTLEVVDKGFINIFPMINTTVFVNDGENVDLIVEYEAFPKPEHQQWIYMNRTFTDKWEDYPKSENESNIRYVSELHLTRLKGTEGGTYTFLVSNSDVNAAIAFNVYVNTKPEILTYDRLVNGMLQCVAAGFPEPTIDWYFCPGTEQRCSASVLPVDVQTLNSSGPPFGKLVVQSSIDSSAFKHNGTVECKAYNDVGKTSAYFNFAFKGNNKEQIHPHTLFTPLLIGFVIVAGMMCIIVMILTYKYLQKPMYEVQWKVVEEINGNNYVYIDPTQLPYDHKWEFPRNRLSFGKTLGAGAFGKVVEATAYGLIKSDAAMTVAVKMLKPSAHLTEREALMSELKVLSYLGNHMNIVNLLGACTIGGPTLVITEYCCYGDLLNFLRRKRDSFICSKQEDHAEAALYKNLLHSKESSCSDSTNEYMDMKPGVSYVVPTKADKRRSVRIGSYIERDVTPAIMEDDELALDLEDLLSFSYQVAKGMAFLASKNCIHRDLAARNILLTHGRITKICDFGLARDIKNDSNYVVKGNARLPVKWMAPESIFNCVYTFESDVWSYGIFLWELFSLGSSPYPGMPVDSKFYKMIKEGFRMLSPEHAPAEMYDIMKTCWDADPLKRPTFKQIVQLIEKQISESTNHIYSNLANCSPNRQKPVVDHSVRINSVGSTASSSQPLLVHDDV", "test": "Competition assays using ELISA and FACS, SCF binding to cKIT"}, "[3]": {"tested_on": "GIST T1 subcutaneous tumor xenograft", "conditions": "GIST T1, SCID-beige mice, single i.v. dose 10 mg/kg", "method": "The anti-tumor activity of anti-cKIT ADCs was evaluated in several tumor xenograft models."}, "[4]": {"conditions": "HAMLX5343, Day 71, 50 mg/kg Daily x 6 days, intraperitoneally"}},
  "note": "Changes are numbered by the printed parent chain.",
  "data": [
    {"molecule": "Cc1ccc(NC(=O)c2ccc(CN3CCN(C)CC3)cc2)cc1Nc1nccc(-c2cccnc2)n1", "note": "[Imatinib]", "values": [
      {"measurement": "cell proliferation", "setting": "GIST cell lines", "value": "significantly reduce proliferation of GIST cell lines"}
    ]},
    {"molecule": "MabCampath [reference compound]", "values": [
      {"measurement": "ADCC", "setting": "Uke-1 cells", "value": "mediated ADCC killing of the target cells"}
    ]},
    {"molecule": "Nc1ccn([C@@H]2O[C@H](CO)[C@@H](O)[C@@H]2O)c(=O)n1", "note": "[ARA-C, cytarabine, reference compound]", "values": [
      {"measurement": "toxicity", "setting": "[1]", "value": "highly toxic"},
      {"measurement": "Mean change of body weight (from day 67)", "setting": "[2]; [4]", "value": "2.3 ± 2.3 % ± SEM"},
      {"measurement": "Mean change of tumor volume", "setting": "[2]; [4]", "value": "−6.6 ± 2.1 % CD45 positive PBMC's ± SEM"},
      {"measurement": "Regression", "setting": "[2]; [4]", "value": "−52.5", "unit": "%"},
      {"measurement": "antitumor activity (leukemic burden)", "setting": "[2]; HAMLX5343, intraperitoneally daily for 6 days", "value": "efficacious in three of the animals"},
      {"measurement": "bodyweight loss", "setting": "[2]; HAMLX5343, intraperitoneally daily for 6 days, three of six animals", "value": "> 20", "unit": "%"}
    ]},
    {"molecule": "B1", "values": [
      {"measurement": "Affinity mouse cKIT", "setting": "mouse cKIT ECD", "value": "Not reactive"},
      {"measurement": "Affinity to rat cKIT", "setting": "rat cKIT ECD", "value": "Not reactive"},
      {"measurement": "blocking of SCF binding to cKIT", "setting": "SCF binding to cKIT", "value": "partial blocking"},
      {"measurement": "antitumor activity (tumor volume)", "setting": "[3]", "value": "Neither the control non-specific IgG1 ADCs nor the unconjugated 9P3 were efficacious"}
    ]},
    {"molecule": "B2", "values": [
      {"measurement": "Affinity mouse cKIT", "setting": "mouse cKIT ECD", "value": "Not reactive"},
      {"measurement": "Affinity to rat cKIT", "setting": "rat cKIT ECD", "value": "Not reactive"}
    ]},
    {"molecule": "B3", "values": [
      {"measurement": "Affinity mouse cKIT", "setting": "mouse cKIT ECD", "value": "Not reactive"},
      {"measurement": "Affinity to rat cKIT", "setting": "rat cKIT ECD", "value": "Not reactive"}
    ]},
    {"molecule": "B4", "values": [
      {"measurement": "Affinity mouse cKIT", "setting": "mouse cKIT ECD", "value": "Not reactive"},
      {"measurement": "Affinity to rat cKIT", "setting": "rat cKIT ECD", "value": "Not reactive"}
    ]},
    {"molecule": "B5", "values": [
      {"measurement": "Affinity mouse cKIT", "setting": "mouse cKIT ECD", "value": "Not reactive"},
      {"measurement": "Affinity to rat cKIT", "setting": "rat cKIT ECD", "value": "Not reactive"}
    ]}
  ]
}
